Reference: the supplement of paper PMC9170038

System: K4 kissing-loop RNA reporter
Test: apparent KD of K4 kissing-loop reporter; higher = weaker reporter binding
Details: Eterna round: R107
Method: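 RNA-MaP round R107: designed RNA switches with theophylline, tryptophan, arginine or FMN aptamers are transcribed on-chip within common flanks. They are titrated with a labelled K4 kissing-loop RNA reporter in RNA-MaP buffer (100 mM Tris pH 7.5, 80 mM KCl, 4 mM MgCl2), without ligand or with the indicated ligand. Median apparent KD per design.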

[1] = input ligand: theophylline 20 uM
[2] = input ligand: tryptophan 2.4 mM
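Note: bound reporter read as fluorescence of individual clusters on recovered sequencing chips by microscopy, with normalized cluster intensities fitted with a binding model.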

| Sequence | apparent KD of K4 kissing-loop reporter (input ligand: FMN 200 uM) [nM] | apparent KD of K4 kissing-loop reporter (input ligand: arginine 13.2 mM) [nM] | apparent KD of K4 kissing-loop reporter (input ligand: none) [nM] | apparent KD of K4 kissing-loop reporter [1] [nM] | apparent KD of K4 kissing-loop reporter [2] [nM] |
| --- | --- | --- | --- | --- | --- |
| UAAUAUCCGUCGGCCGCCACUCACUAGUGAUGUUAGAGGAGUGAUGUUCCACGAGUGAUGUUCGAGAGGACCGGGACGGACGAUG [7th] | 75.1 | 60 | 65.3 | 56.6 | 54.9 |
| UGAUUUAACUGAAGGAGCGGCAAUUGAUAAGUAAAUAUAGUGAUGUUAUAUAAGAGAGAGAGCCAGGUAGGUCGCAGAGGGAGGA [ExArgB.I] | 205 | 138 | 167 | 170 | 140 |
| UGUGAACAAAAGUAGAGUGGACCACUAUAGCGAGGACCGGUACGGCCGCCACUCGUACAUGAAUUCAGUGAUGUUGAAAAGAGCU [whbob_EX_Tryp_A_t13] | 294 | 413 | 307 | 400 | 209 |
| GAAUCAUGUAGAAGGAGCGUUAGAAGUUAUAGGGAUGAGUGAUGUUUGUGUUAGUAAAUCUGACAGGUAGGUCGCUACAGAAGGA [KL-SSArg B21 #analogue] | 712 | 258 | 607 | 132 | 308 |
| AGACUACCACACUGUCAAUAGACAGUGAGCUAGGAUAUGCUGAUAAGCAGAAGGAGUGAUGUUCCCAGGUAGUCAAUAAAAUAAU [FmnAX 13 G29+C66] | 272 | 192 | 231 | 302 | 238 |
| UGAUCUGCAGUGAUGUUGCAGUAGCUGUCAGAGGAUAUCAGACUCAUGAGAAGGCUGACAAUGUCUAACAGCACAAUGCUGUUCA [FMN A SS t6] | 156 | 156 | 166 | 197 | 146 |
| GGUCCACGCCAUGCCAGUGAUGUUGGUAAGCGAGGACCGGUACGGCCGCCACUCGUUCAAUACCGUAUCGCCCAUAACCUGGAGA [Oneseror] | 113 | 89.1 | 104 | 96.5 | 118 |
| UUUUUUUACUGAAGGAGCGGCAAUUGAUACGUAGAUAUAGUGAUGUUAUAUAAGAUAGAGAGCCAGGUAGGUCGCAGAUUUUUUU [ExArgB.W] | 153 | 171 | 163 | 167 | 147 |
| UGACUGGACUGAAGGAGCGUUCAGGUAGGUCGCAUAGGAGUGAUGUUCCAAUGAAGGAGCGAGCAGGUAGGUCGCAGUCUAGUCU [ArgBS 13 #DoubleAptamer #SwitchBubble] | 157 | 219 | 243 | 205 | 158 |
| AAUUUAUUAUCUGAUACCAGACUUUAUCUUGUUUAUAAGUCAAGUGAUGUUUGACUAUUAGUCCCUUGGCAGCAGUAUUUUUUAA [JR_Nu_SSTheophyB_Sub025] | 251 | 260 | 269 | 187 | 230 |
| AAUUCUUAUCUUAGUUGAUUUCUAAUUAAACGAGGACCGGUACGGCCGCCACUCGGUUAUGAGUGAUGUUCAUGGAAUUACAUAA [JR_SSTryptoA_Sub019] | 407 | 601 | 515 | 791 | 169 |
| CCUAUCUCGUACGAUACCAGUCAAUGAUCUUUGAUCAAUGCCAUCACCGAGUGAUGUUCGGACCCUUGGCAGCGUAUGAGAUGGG [whbob_Ex_Theo_B_sa105] | 272 | 207 | 251 | 386 | 242 |
| GGGUAUUACGGAGGAUAUGCACUGAGGAGGAGAAUAUAGUGAUGUUAUAUAAGAGGAAGGAGAAGAGUAGAAGGCCGUGGUAUUG [SSFMNB.H] | 247 | 217 | 280 | 277 | 190 |
| ACUGAGUUGACGAAAGUCAACAAUUGAGAAGGAGCGCACGAAAGUGCAGGUAGGUCGCUCAGUCCAGUGAUGUUGGAUCAUCAGA [#17 K4 Arginine A Same State] | 324 | 558 | 383 | 478 | 275 |
| AAAUAAAGCAGUCACCCAGUGAUGUUGGAAGGAGCGUGCGAAAGCACAGGUAGGUCGCCAAAAUAAAGUGGCUGCGGCAAAGCCA [#SwitchBubble 25 #K4Early] | 409 | 428 | 399 | 578 | 305 |
| AAGCAGUCACUCGAAUCCAUCGAAGAUGGGCGAGGACCGGUACGGCCGCCACUCGGAGUGAUGUUCCAAAGACUGCAAAAUAAAA | 451 | 378 | 306 | 550 | 136 |
| UUAGAGAUCUCAGGAUAUCAGUGAUGUUGAGAUUCAGAUCUGAGAUAGAAUUCUAUCUCAGAUCAAUGAGAAGGGAGAUCUCAUU [AK4.4 Exc FMN B] | 463 | 540 | 649 | 699 | 443 |
| GUCUCGAGUGAUGUUCGGGUCGAUUGGGAAGGAGCGCCCGGAAGGGCAGGUAGGUCGCCCGGGCCGCGCGGGAAACCGCGCGUCC [#2 Same State - Arginine A Attempt #8 (HarryS)] | 208 | 110 | 194 | 140 | 154 |
| AAGUGUGGUCCAGUGAUGUUGGAACCAGAUACCAGCGACAUAGUGCGCCCUUGGCAGCUGGCACACAUGCGCUGCACGACUAGAA [Riusveis] | 206 | 182 | 207 | 363 | 168 |
| AGACUUCACCGAAGGAGCGACGUGGCCUAGUGAUGUUAGGCACGAGAGAAAUCUCGUAUACGUCAGGUAGGUCGCGGUGAAGUCA [Omei KL Arginine B SS C v6] | 204 | 142 | 165 | 160 | 180 |
| UAGAUAAUGUAAGAUUAUGAUAAUUGGGAAGGAGCGCGGAAAUUCGCAGGUAGGUCGCCCUAUAAAGUAGUACGAGUGAUGUUCG [6.)] | 217 | 205 | 281 | 305 | 261 |
| AAUAAUUUCAGAGGAUAUGCUUUAUUAUGAUUUUUAAAUAAUAAAUGCAGUGAUGUUGCUUAUUAUGCAGAAGGCUGAUUUAUAA [JR_SSFMNB_Sub015] | 143 | 727 | 747 | 721 | 565 |

| Sequence | apparent KD of K4 kissing-loop reporter (input ligand: FMN 200 uM) [nM] | apparent KD of K4 kissing-loop reporter (input ligand: arginine 13.2 mM) [nM] | apparent KD of K4 kissing-loop reporter (input ligand: none) [nM] | apparent KD of K4 kissing-loop reporter [1] [nM] | apparent KD of K4 kissing-loop reporter [2] [nM] |
| --- | --- | --- | --- | --- | --- |
| AAUAAGGUCGCCGAUACCAGCGCGGGCAGAGCAAAGCUCUGCCCGGCAGUGAUGUUGCCGCGCCCUUGGCAGCGGUGGCACGACC [Omei KL Theo B SS C v7] | 166 | 48.4 | 47.2 | 216 | 55.8 |
| CAUACGCAUGGAGGAUAUGAGAUUUCUCAUAUUAUUUAAUAUUCUCAGUGAUGUUGAGAUAUAAACUCAGAAGGCCAUGUGUAUG [Ex FMN B 2] | 340 | 198 | 196 | 245 | 215 |
| UGUCAUUGGUCGGCCGCCACUUCGUGUAGAGUGAUGUUUUGUAGGACGGAUCGAAAGAUCUGUCGGAGGACCGGGACCGAUGACU [FiskerMod 17 - Jieux - Same State - Tryptophan B] | 228 | 139 | 408 | 481 | 889 |
| GUGGUACAGGCGGCCGCCACUAGUGAUGUUAGUGAUAGAAGAUAUAGUAAAUAUCGGCAUUUAGAUAGGACCGGGCCUGGUGGUG [xxfxcmullin] | 353 | 245 | 305 | 309 | 267 |
| ACCAAUUUACCGGCAGUAGUGAUGUUACUCCGAGGACCGGUACGGCCGCCACUCGCGAACGUAGGGUUUCUGACUCGAAGAGUCU | 191 | 127 | 171 | 149 | 171 |
| UGUACCGAGUCAGGAUAUGGCGUCGAAAGACGAAUCUUAGUGAUGUUAGGGAUCUGCGAAAGCAGUCCAGAAGGGACUUGGUACU [FmnBS 26 U37] | 568 | 583 | 768 | 605 | 902 |
| UGUCAUGGAAACAUGAACGUUAAAAUAAAUCGAGGACCGGUACGGCCGCCACUCGUAUAGCGGUCAGUGAUGUUGACUGUAGUAA [KL-SSTryp-A form2 sub8] | 99.2 | 116 | 108 | 116 | 96.8 |
| UUGGACCUUAGCCUCAAUAGAACUUUGUUACGAGGACCGGUACGGCCGCCACUCGUCGGGCUCCGAUAGCCAGUGAUGUUGGCAA [theeternabot_sameState_KL_Trp_A_16] | 429 | 405 | 693 | 1010 | 212 |
| AGCCACGACGCGGCCGCCACUGCCAUUAAACGUAAGGCAAAUCUAAUCUUCGAGUGAUGUUCGGGCAGGACCGGGCGGAGACUUG [theeternabot_sameState_KL_Trp_B_18] | 636 | 300 | 478 | 772 | 371 |
| CACGAUGAAUUCUCUAGGAGUGAUGUUUUUCGAGGACCGGUACGGCCGCCACUCGGACGACGAGUGUGGUAGCGGGCUGAAGACU [zgullin] | 429 | 262 | 643 | 239 | 561 |
| GAAUUAUGUAGAAGGAGCGUCAGAAGGUAUAGGUGCGAGUGAUGUUUGGACCUGUUAAUUUGACAGGUAGGUCGCUACAGAAGGA [KL-SSArg B20 #analogue] | 533 | 291 | 448 | 304 | 320 |
| AUUCGUUUUUGUGAUACCAGACAUGUGAGUGAUGUUUACAUAUAUAUUUAAUAUUUAGCUGUCCCUUGGCAGCACUGUUUAUUUA [JR_ExcTheophyB_Sub003] | 343 | 384 | 393 | 444 | 291 |
| UGACUGGACUGAAGGAGCGCUGAACUCCUAGUGAUGUUAGGAAAACGAGACAAAGUCUCGCGGCAGGUAGGUCGCAGUCUAGUCU | 130 | 85.9 | 108 | 111 | 99.2 |
| GCAGUGAUGUUGCACGAGUAGGCUGGAGUACGAGGACCGGUACGGCCGCCACUCGUACGGAAGUCGCUAAUUUAUGGAAUGGUGA [#06 K4 Tryptophan A Same State] | 592 | 381 | 341 | 413 | 436 |
| CGCUGGGCGAGUGAUGUUCGCUCACGUGAUACCAGUGCAAUCCAACACCCUUGGCAGCACGCGGGCAGUGAUGUUGUCCUUAGUG [Exclusion Theophylline A GF12] | 160 | 149 | 157 | 143 | 127 |
| AGUCCACUCUAAAGAGUGGACCUAAGGGAUACCAGUGAUGUUGGUCACCCUUGGCAGCCCGCUGUCAUCGAUAAAGAUGGCAGAA | 136 | 121 | 120 | 147 | 120 |
| UGUCAUUGGUCGGCCGCCACUUCAAGGUCAAAGACCAAAGAGUGAUGUUCUAAGACGAAAGUCAGAAGGACCGGGACCGAUGACU [TrypBS 10 #SwitchBubble #K4Middle] | 168 | 67.7 | 128 | 223 | 1220 |
| UGCUUUAUCAGAAGGAGCGCGUAAGUUAUACUAAUAAUCAGUGAUGUUGAUAUAUGAUCUUUGCAGGUAGGUCGCUGAUAUAGCU [KL-XARG-B4] | 452 | 419 | 532 | 467 | 472 |
| AAAUAGAUCAGUCAACCAGUGAUGUUGGAAGGAGCGUGCGAAAGCACAGGUAGGUCGCCAUAAUAAAAUUGGCUGAUCAAAAUAA | 340 | 615 | 648 | 614 | 344 |
| UGACUGGAUGGAAGGAGCGCUAAACUCCUAGUGAUGUUAGGGAUACGAGGCAAAGCCUCGAAGCAGGUAGGUCGCCAUCUAGUCU [FiskerMod 21 - Jieux - Same State - Arginine B] | 171 | 123 | 146 | 171 | 159 |
| UGAUACCAGGCGGCCGCCACUCCUGCAGGUCAAAGACCUGUGAAGCUGGUUCUCCAGUGAUGUUGGAGGACCGGGCCUGGUAUCU [FiskerMod 27 - Jieux - Exclusion - Tryptophan B] | 202 | 176 | 185 | 179 | 356 |
